The values below come from patent US12648942B2, “Method for treating acute ischemic stroke” (Lumosa Therapeutics Co., LTD, priority 2021, dated 2026).

Like-named read-outs stand apart in the source and are kept apart here.

Series [1] relates to embolic middle cerebral artery occlusion (MCAO) rats. As to the kind of experiment: Embolic middle cerebral artery occlusion (MCAO) model in Wistar rat (Examples 2, 7-9). The series is classed as in vivo. To be noted: for Mean neurological severity score (NSS): 24 hours post-MCAO, scale 0-18; for blood flow compared to saline treated group: measured for 3 hours, p<0.0001 vs saline. As to the method: At Day 0, anesthetize the rats to collect blood from the femoral artery to prepare the homologous clot. Create a partial arteriotomy with a microscissors and then insert a sterile PE-50 tubing ([…]) along the artery. Arterial blood collected in this length of the PE-50 tubing commonly generates ˜10 indusial clots that are suitable for MCAO. Keep the clot in the tube for 2 hours at room temperature and subsequently retain for 22 hours at 4° C.
At Day 1, to prepare the embolus, cut the clot containing PE-50 tubing into 32 mm segment in length and connect the segment with a 3 ml saline filled syringe with 23G needle. Push the syringe to flush the clot out of the PE-50 tubing into saline filled Petri dish. Draw and flush the clot into and out of the PE-10 tubing (draw from clot's end to avoid folding and twisting of the clot), respectively, 10-15 times to wash out the majority of the entrapped red blood cells until the clot without further RBCs releasing. Connect the PE-10 tubing to the modified PE-50 catheter and shift the clot into PE-50 catheter. Then, the modified PE-50 catheter is connected to a 100 μl Hamilton microsyringe. The clot is now ready to be used.
At Day 1, anesthetize the rats. Bluntly dissect the carotid sheath along the common carotid artery (CCA) until the ECA (ipsilateral external carotid artery), PPA (pterygopalatine artery), and ICA (internal carotid artery) bifurcation is exposed. […] Prepare laser Doppler flow probe into the tube of head. Temporarily clamp the CCA, PPA, and ICA with clip and apply a 4-0 silk suture loosely around the trunk of the ECA near bifurcation. Release the clip slowly and further advance the catheter within the ICA to enter the intracranial segment of the ICA until resistance is felt. The total length of the catheter that has been advanced is −19-22 mm from the ECA arteriotomy site. Retract the catheter 1-2 mm and slowly inject the clot with 5-10 μl of saline at rate of 10 μl/min. The percentage of regional cerebral flow (rCBF) decrease into ˜20-30% after clot injection. Wait for 30 minutes to let the clot stable at the ICA. Retract the catheter until its tip reaches the ECA/ICA bifurcation. Re-apply a clip to temporarily clamp the CCA and the ICA and then withdraw the catheter from the arteriotomy. Tighten the 4-0 silk suture around the ECA trunk to ligate the arteriotomy. Remove the clip. Wait for another 30 minutes to make sure the animal is stable and there is no blooding issue. Close the incision and terminate the anesthesia.
Neurological deficits were assessed at 24 h after MCAO surgery. The neurological function was graded on a scale of 0-18, with 0 representing normal function and 18 representing maximum neurological deficits (see FIG. 2).
24 hours after the induction of MCAO, anesthetize the rat with 5% isoflurane and use normal saline to do the perfusion from heart (150 ml). Decapitate the rat and collect the brain. Rinse the collected dish and matrix with PBS before used. To tear out clot after taking photo. Slice the brain coronally into […] 2-mm slices with a brain matrix on ice (Cut the brain into 8 pieces). Incubate the brain slices in 2% 2,3,5-triphenyltetrazolium chloride (TTC) (Sigma-Aldrich) in 1×PBS for 20 min at room temperature (avoid light) and record the result by photo. Then, using ImageJ to determine the size and extent of the infarction.
The caudal sides of all the TTC sections were scanned using a digital camera, and the images were stored as JPEG. The non-ischemic and ischemic hemisphere infarct areas were measured using image J (Image J, Bethesda, MD) software. All eight infarct area measurements were calculated with a 2 mm distance between the slices. […]

The nature of series [2]: Study 101: pharmacokinetics of single doses in healthy subjects. The series is classed as in vivo, human. From the text: The primary objective of this Phase 1, double-blind, randomized, placebo-controlled study was to determine the safety, tolerability, and pharmacokinetics of single ascending doses of DC009 drug product administered by 15-minute IV infusion in healthy subjects. The secondary objectives were to characterize the pharmacodynamics of single-ascending doses, explore the pharmacokinetic-pharmacodynamic relationships of single-ascending doses, and to determine the RP2D of the DC009 drug product.
The subject population was healthy adult male and female subjects between the ages of 18 and 65 years. Sixteen healthy subjects completed the study. All subjects received a single dose of DC009 drug product or placebo administered via a 15-minute IV infusion.
Cohort 1 (8 subjects) was administered 0.05 mg/kg DC009 drug product or placebo, and Cohort 0 (8 subjects) was administered 0.025 mg/kg DC009 drug product or placebo.
Primary Endpoints: • Nature and severity of adverse events (AEs) and number of subjects with AEs • Changes from baseline in vital signs, electrocardiogram (ECG) results, laboratory abnormalities, plasmin-antiplasmin complex, euglobulin clot lysis time, platelet aggregation, and physical examination findings • Pharmacokinetic parameters: maximum plasma concentration (Cmax), time to reach the observed maximum (peak) concentration (Tmax), area under the plasma concentration-time curve from time zero to the time of the last quantifiable concentration (AUC0-t), elimination half-life (T1/2), total body clearance of the drug from plasma (CL), and volume of distribution Secondary Endpoints • Pharmacodynamic effects of DC009 drug product on blood pressure, thrombin time (TT), prothrombin time (PT), euglobulin clot lysis time, and activated partial thromboplastin time (aPTT) up to 48 hours after dosing • Relationship between DC009 plasma concentrations and the selected PD and safety parameters • RP2D (recommended phase II dose) Results
The pharmacokinetic parameters of DC009 drug product were assessed included maximum plasma concentration (Cmax), time to reach Cmax (Tmax), area under the plasma concentration-time curve from time zero to infinity (AUC0-∞), area under the plasma concentration-time curve from time zero to the time of the last quantifiable concentration (AUC0-t), elimination half-life (T1/2), total body clearance of the drug from plasma (CL), and volume of distribution at steady state (Vss). A single sample of blood was collected at the following time points for the quantification of DC009 in plasma: at predose, 5, 10, 15 (end of infusion), 20, 25, 30, and 45 minutes; and at 1, 2, 4, 6, 12, 18, and 24 hours after infusion was initiated.

Series [3] relates to minipigs. In words: Pre-clinical toxicity in minipig. In kind it is in vivo. The note with it: set from pre-clinical toxicity result in minipigs. The method, then:
According to inventors' pre-clinical toxicity result of DC009 in minipig, the inventors set up a limit on plasma exposure of 1177 ng/mL in minipigs. The inventors then set up a safety factor to provide a margin of safety for protecting human subjects receiving the initial clinical dose. As described in the Background, the default safety factor is 10 but it may be adjusted based on available safety data.

Series [4] has as its system subjects with acute ischemic stroke (AIS). To be noted: cited from earlier work.
Setting [5] is: 0.025 mg/kg dose to the 0.05 mg/kg dose.

One may read the Cmax as the highest concentration seen after dosing. By Tmax is commonly meant the time from dosing to the highest level. Take `CC(NC(=O)C1CCCN1)C(=O)NC(CCCCN)C(=O)NCCCCC(NC(=O)C1Cc2cc(O)c(O)cc2C(C)(C)N1)C(=O)O` (stereo not drawn) [DC009, 3S-6,7-dihydroxy-1,1-dimethyl-1,2,3,4-tetrahydro-isoquinoline-3-acyl-Lys(Pro-Ala-Lys)]: the “Mean neurological severity score (NSS)” value in series [1] (DC009 0.005 mg/kg, 15-minute IV infusion 3 hours after stroke onset) is 7.13 ± 0.64. The “infarct size compared to saline and rtPA treated groups” value in series [1] (DC009 0.025 mg/kg at 3 and 6 hours post MCAO surgery, 24 hours after stroke, TTC, FIG. 4) is recorded as “significant smaller infarct size”. For the same compound, in series [1] (DC009 0.05 mg/kg, 15-minute IV infusion 1 hour after stroke onset, FIG. 3), the “restoring occluded blood flow” value was “good efficacy”. For the same compound, the “blood flow compared to saline treated group” value in series [1] (DC009 0.05, 0.1, 0.2 and 0.4 mg/kg, 15-minute IV infusion 1 hour after stroke onset, FIG. 3) is “increased”. Further, the “dose-normalized geometric mean ratio for AUC0-inf” value in series [2] (setting [5]) stood at 1.40. Also, the “dose-normalized geometric mean ratio for Cmax” value in series [2] (setting [5]) stood at 1.46. For the same compound, the “time measurable in plasma samples after the start of the infusion” value in series [2] (0.025 and 0.05 mg/kg, single 15-minute IV infusion) is “only measurable within the first half-hour”. In series [2] (0.025 vs 0.05 mg/kg), the “dose proportionality of exposure” value is on record as “approximately dose proportional”. For the same compound, the Cmax is 120 ng/mL in series [2] (Cohort 1, 0.05 mg/kg, single 15-minute IV infusion, individual subjects); under 110 ng/mL in series [2] (both sexes, human, plasma, iv, 0.025 mg/kg, Cohort 0, 0.025 mg/kg, single 15-minute IV infusion, Mean ± SEM, read-out: Cmax); under 110 ng/mL in series [2] (both sexes, human, plasma, iv, 0.05 mg/kg, Cohort 1, 0.05 mg/kg, single 15-minute IV infusion, Mean ± SEM, read-out: Cmax); 152 ng/mL in series [2] (both sexes, human, plasma, iv, 0.05 mg/kg, Cohort 1, 0.05 mg/kg, single 15-minute IV infusion, individual subjects, read-out: Cmax). For the same compound, the half-life in series [2] (both sexes, human, plasma, iv, 0.025 and 0.05 mg/kg, single 15-minute IV infusion, read-out: T1/2, range) is 3 to 4.2 min; in series [2] (both sexes, human, plasma, iv, 0.025 and 0.05 mg/kg, single 15-minute IV infusion, read-out: mean of T1/2 (converted)), 3.24 min. Besides, the Tmax in series [2] (both sexes, human, plasma, 0.025 and 0.05 mg/kg, single 15-minute IV infusion) is 6 to 18 min. For the same compound, the “limit on plasma exposure” value in series [3] is on record as 1177 ng/mL.
“rtPA: Alteplase (Activase), a recombinant tissue-type plasminogen activator (rtPA) [reference compound]”: the “blood flow compared to saline treated group” value in series [1] (rtPA 10 mg/kg (10% IV bolus, rest infused for 30 minutes) 1 hour after stroke onset, FIG. 3) is listed as “increased”. The “Mean neurological severity score (NSS)” value in series [1] (rtPA 10 mg/kg (10% IV bolus, rest infused for 30 minutes) 3 hours after stroke onset) is recorded as 6.38 ± 0.74. The “infarct volumes (% hemisphere)” value in series [1] (rtPA 10 mg/kg (10% IV bolus, rest infused for 30 minutes) 3 hours after stroke onset, 24 hours, TTC) came out at 43.23 ± 11.03 % hemisphere. Also, the “risk of symptomatic intracerebral hemorrhage” value in series [4] is listed as about 5 fold.
